B1: Eterna 7634493 (Same State - Theophylline A) (ssRNA)
RNA: ACAUGAGGAUCACCCAUGUCUGCCACUGAUACCAGCGGAAGAAAACGCCCUUGGCAGCAGAACAUGAGGAUCACCCAUGUAGGCU
B2: Eterna 6429508 (Inverted Exclusion NG 3) (ssRNA)
RNA: GGGUGCCCUGCAGAAGCGACAUGAGGAUCACCCAUGUAACGUAGAAGGGCCCGGAACUAAGGUGGGCAGGAUAUACUGUUAGGU
B3: Eterna 6429692 (Inverted Same State NG 1) (ssRNA)
RNA: AUCAUGCUCAAGAAGGACAUGAGGAUCACCCAUGUAGGAUAUUGGGCGGUCACUUCUAGCUUGUGUGUAUCUGAAUACUCCAGG
B4: Eterna 1257 (Exclusion - Tryptophan B) (ssRNA)
RNA: CUGUUUUAGUCGGCCGCCACUGCAAGUGAUGUUUGGAGUAUUAUGCCGUUUCUGUCCAUUGAACCCAGGACCGGGACCGGAUCGU
B5: Eterna 8125 (Exclusion 4) (ssRNA)
RNA: GUGAAGUGAGGAUAUACGAGAGAGGCUGAACCGGACGAGAAGUAGAAGGCACAUGAGGAUCACCCAUGUACGGG
B6: Eterna 5988416 (Sensor, turn-off variant 1) (ssRNA)
RNA: UCACAAGCUGUGGGUGGUGACAUGAGGAUCACCCAUGUUUUGCUCGUCUUGUGCCGGGCCCGGCGCCCGGGCCCGGC
B7: Eterna 6458016 (Inverted Same State NG 1) (ssRNA)
RNA: CGCUACACCCAGAAGGACAUGAGGAUCACCCAUGUAGGAUAUGGGAGACACAGUCCCAUGUAGAGAAAUUACGCUAGUGUAGCG
B8: Eterna 1174 (Exclusion - Theophylline B) (ssRNA)
RNA: GCUGUCCAGUUCGAUACCAGAGUUAUCGCACUGUAGUGAUAAAGUGAUGUUUUAUCAGUCCUCCCUUGGCAGCGAUGCCCGGCUG
B9: Eterna 5998949 (Sensor, turn-off variant 1) (ssRNA)
RNA: UUUCCGGCGCGGGUUUUUUACAUGAGGAUCACCCAUGUCCUCUGCUUGUCUUGUCUUGGGCUUUUUUUGGGUUCGGG
B10: Eterna 1188 (Exclusion - Theophylline B) (ssRNA)
RNA: AGCUGCCGAAUAGAUACCAGUGUCUUUAGUGAUGUUUCAGAGCUGGCACGAUCAGAAGGUCACCCUUGGCAGCUAGUGCCAGCGU
B11: Eterna 7705565 (Exclusion - FMN A) (ssRNA)
RNA: AGACUACCACACUGUCAAUAGACAGUGAACUAGGAUAUGCUGAUAAGCAGAAGGAGUGAUGUUCCUAAAGGUAGUCAAAUAUAAU
B12: Eterna 7695377 (Same State - Theophylline A) (ssRNA)
RNA: UCUUAACUAAAAUAAUGGGAUACCAGUGAUACCAGCCAUAUGCAGGGCCCUUGGCAGCACCCUUGGCAGCCUCGAGUGAUGUUCG
B13: Eterna 6417730 (Small Loop Same State NG 3) (ssRNA)
RNA: ACAUGAGGAUCUCCCAUGUAAAAUUAGGAUAUAUAACUGCACAUGAGGAUCACCCAUGUUUAACCGUAGAAGGGAUAAAUAAUU
B14: Eterna 1521 (Same State - FMN A) (ssRNA)
RNA: CGUAAGGAUUGACGACUGCAGAGCAAAAUAAAGGAUAUCGCAGCGUCGAGAAGGUUAUCGUGCGCCAGUGAUGUUGGCGGUAGUC
B15: Eterna 7720201 (Exclusion - Theophylline B) (ssRNA)
RNA: CCUAUCUCAUACGAUACCAGUCUACGAUAUUUUAUCGUUGCCAACACCGAGUGAUGUUCGGACCCUUGGCAGCGUAUGGGAUAGG
B16: Eterna 7709687 (Same State - Tryptophan B) (ssRNA)
RNA: UAUUAAGUGACGGCCGCCACUAUGGUGAUUUAUUUGUUUGAGUGAUGUUUUGAUGUUUGAUUUUGUAGGACCGGGUUAUGUGUUA
B17: Eterna 10033 (Sensor v3, turn-off variant 2) (ssRNA)
RNA: ACUAGCGAAAUGCUCGUCUUAUUUUUGUAGAGGUUCUAAACAUGAGGAUCACCCAUGUAGUGGUUUUUGUGGAGGUA

Here are results for 18 molecules from publication PMC9170038, “Crowdsourced RNA design discovers diverse, reversible, efficient, self-contained molecular switches”.

Broadly, the Kd is a measure of binding affinity in units of concentration. Lower therefore signals higher affinity.

The target of the first series is T1, MS2 coat protein, dlFG mutant (Escherichia phage MS2, UniProt P03612, del68-81insG). Kind of series: 4 mM Mg2+; theophylline 2 mM; RNA-MaP array; 100 mM Tris-HCl pH 7.5, 80 mM KCl, 4 mM MgCl2, 0.1 mg/mL BSA, 1 mM DTT, 0.01 mg/mL yeast tRNA, 0.01% Tween-20; protein 1.5 nM to 3 uM; 37 C (Table S3). The note with it: chain copies: 2; label: tethered by stalled RNA polymerase.
B1 returned a Kd of 188 nM. In other words, the sub-micromolar range.

The target of another series is T1, MS2 coat protein, dlFG mutant. Kind of series: 4 mM Mg2+; FMN 200 uM; RNA-MaP array; 100 mM Tris-HCl pH 7.5, 80 mM KCl, 4 mM MgCl2, 0.1 mg/mL BSA, 1 mM DTT, 0.01 mg/mL yeast tRNA, 0.01% Tween-20; protein 1.5 nM to 3 uM; 37 C (Table S3). The note with it: chain copies: 2; label: tethered by stalled RNA polymerase.
With B2, the affinity, expressed as Kd, was 7.24 nM.
Same read-out and setting: to B3 belongs 7.54 nM.

The target is the same in a further series. Nature of the series: 4 mM Mg2+; no ligand; RNA-MaP array; 100 mM Tris-HCl pH 7.5, 80 mM KCl, 4 mM MgCl2, 0.1 mg/mL BSA, 1 mM DTT, 0.01 mg/mL yeast tRNA, 0.01% Tween-20; protein 1.5 nM to 3 uM; 37 C (Table S3). The note with it: chain copies: 2; label: tethered by stalled RNA polymerase.
In turn, B4 showed a Kd of more than 3000 nM.
On the same count and under the same terms, to B5 belongs 208 nM.
Still for that read-out and setting: to B6 belongs 1080 nM.
The same measure, in the same setting: to B7 belongs 166 nM; to B8, more than 3000 nM; to B9, 798 nM.
B10 displayed a Kd of more than 3000 nM.
The same measure, in the same setting: the value for B11 was more than 3000 nM.
The same measure, in the same setting: the value for B12 was more than 3000 nM; that for B13 was 1100 nM; that for B14 was more than 3000 nM.
On the same count and under the same terms, the value for B15 was more than 3000 nM; that for UUUCAGGGCAGUGAUGUUGCCCUCUUU (ssRNA) [Eterna 9 (K4-7bp_control)] was more than 3000 nM; that for B16 was more than 3000 nM.

The target is the same in a further series. Kind of series: 4 mM Mg2+; miR-208a RNA 100 nM (AU…UUGU); RNA-MaP array; 100 mM Tris-HCl pH 7.5, 80 mM KCl, 4 mM MgCl2, 0.1 mg/mL BSA, 1 mM DTT, 0.01 mg/mL yeast tRNA, 0.01% Tween-20; protein 1.5 nM to 3 uM; 37 C (Table S3). As to conditions: chain copies: 2; label: tethered by stalled RNA polymerase.
Consider B17, for which the Kd amounted to 265 nM.
